Test results reported in patent EP4810515A1 (Shanghai Haiju Biological Technology Co., Ltd., dated 2026).

T1: mouse GDF15 recombinant protein (Kactus, GDF-MM215) (mouse, UniProt Q9Z0J7 189-303, limits assumed)
T1 construct: also called mGDF-15.hFc; murine GDF15; not shown: human Fc (hFc)
T1 sequence (looked up): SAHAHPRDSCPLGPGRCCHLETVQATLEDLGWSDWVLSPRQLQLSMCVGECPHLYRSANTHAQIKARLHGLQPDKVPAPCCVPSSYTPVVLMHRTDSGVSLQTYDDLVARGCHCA

T2: cynomolgus monkey GDF15 recombinant protein (Kactus, GDF-CM215) (cynomolgus monkey, UniProt G7PWZ3 197-308, limits assumed)
T2 construct: also called cynoGDF-15.hFc; cynoGDF15; not shown: human Fc (hFc)
T2 sequence (looked up): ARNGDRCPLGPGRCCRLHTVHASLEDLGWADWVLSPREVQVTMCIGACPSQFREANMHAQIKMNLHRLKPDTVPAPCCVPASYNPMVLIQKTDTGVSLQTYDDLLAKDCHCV

T3: human GDF15 recombinant protein (ACRO, GD5-H5149) (human, UniProt Q99988 197-308)
T3 sequence (looked up): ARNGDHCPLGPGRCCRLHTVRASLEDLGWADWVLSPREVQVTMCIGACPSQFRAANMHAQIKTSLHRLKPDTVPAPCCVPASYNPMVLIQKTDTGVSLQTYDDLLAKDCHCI


Key:
[1] = target: T1, mouse GDF15 recombinant protein …; experiment: ELISA, coated mGDF-15.hFc
[2] = target: T2, cynomolgus monkey GDF15 recombinant …; experiment: ELISA, coated cynoGDF-15.hFc
[3] = target: T3, human GDF15 recombinant protein (ACRO, …); experiment: cell-based or functional assay
[4] = target: T3, human GDF15 recombinant protein (ACRO, …); experiment: ELISA, coated hGDF-15.His
[5] = target: T3, human GDF15 recombinant protein (ACRO, …); experiment: cell-based or functional assay; remark: listed apart in the source

| Binder | EC50 [1] [nM] | EC50 [2] [nM] | IC50, luciferase reporter gene cell strain (mGFRAL/RET HEK293) with hGDF15 [3] [nM] | EC50 [4] [nM] | IC50, reporter gene cell strain (mGFRAL) [5] [µg/mL] |
| --- | --- | --- | --- | --- | --- |
| G2-CH13 (antibody, human IgG1, kappa, V domains shown, chimeric: murine variable regions on human IgG1 constant region mutant (LALAGA, -K)) VH: EVLLQQSGPELVKPGASVKITCKASGYTFTDYNMNWVKQSHGKSLEWIGDINPYNGGIIYNQKFRGKATLTIDKSSSTAYMELRSLTSEDTAVYYCAREVRRGSFFDYWGQGTTLTVSS VL: DIQMTQSPASLSVSVGETVTITCRASENIYSNLAWYQQKQGKSPQLLVYAATDLADGVPSRFSGSGSGTQYSLKINSLQSEDFGNYHCQLFWGTPTFGGGTKLEIKR | 0.22 | 0.0654 | 11.7 | 0.00382 | – |
| G2-CH10 (antibody, human IgG1, kappa, V domains shown, chimeric: murine variable regions on human IgG1 constant region mutant (LALAGA, -K)) VH: not shown VL: DIQMTQTTSSLSASLGDRVTISCRASQDISNYLNWYQQKPDGTVKLLIHSASNLHSGVPSRFSGSGSGTDYSLTISNLEQEDIATYFCQQYNMFPWTFGGGTKLEIKR | 0.25 | 0.0841 | 3.4 | 0.00592 | – |
| G2-CH14 (antibody, human IgG1, kappa, V domains shown, chimeric: murine variable regions on human IgG1 constant region mutant (LALAGA, -K)) VH: QVTLKESGPGILQPSQTLSLTCSFSGFSLSTSGMGVSWIRQPSGKGLEWLALIYWDDDKRYNPSLKSRLTISKDASSNQVFLKITSVDTADTATYYCIQSPWDWFAYWGQGTLVTVSA VL: EIVLTQSPALMAASPGEKVTITCSVSSSISSSNLHWYQQKSETSPKPWIYGTSNLASGVPVRFSGSGSGTSYSLTISSMEAEDAATYYCQQWSSYPLTFGAGTKLELKR | 0.76 | 0.0721 | 0.2 | 0.00663 | – |
| G2-CH6 (antibody, human IgG1, kappa, V domains shown, chimeric: murine variable regions on human IgG1 constant region mutant (LALAGA, -K)) VH: EVQLRQSGPELVKPGTSMKISCKASAYSFTDYNMNWVKQSHGKNLEWIGLINPYNGGTRYNQNFKGKATITVDRSSTTAYMELLSLTSEDSAIYYCAREVRLGNALDYWGQGTSVTVSS VL: DIQMTQSPASLSVSVGETVTITCRPSESIYSNLAWYQQKQGKSPQLLVYAATNLADGVPSRFSGSGSGTQYSLKINSLQSEDFGTYYCQHFWGIPWTFGGGTKLEIKR | 0.11 | 0.0892 | 4.39 | 0.00434 | – |
| G2-CH9 (antibody, human IgG1, kappa, V domains shown, chimeric: murine variable regions on human IgG1 constant region mutant (LALAGA, -K)) VH: EVQLQQSGPELVKPGASMKISCKASGYSFTGYNMNWVKQSQGKNLEWIGLINPYNGGTIYNQKFKGKATLTVDKSSTTAYMELLSLTSEDSAVYYCAREVRLGNAMDYWGQGTSVTVSS VL: DIQMTQSPASLSVSVGETVTITCRASENIYSNLAWYQQKQGKSPQLLVSAATNLADGVPSRFSGSGSGTQYSLKIISLQSVDFGSYYCQHFWGTPWTFGGGTKLEIKR | 0.11 | 0.097 | 1.42 | 0.00634 | – |
| G2-CH7 (antibody, human IgG1, kappa, V domains shown, chimeric: murine variable regions on human IgG1 constant region mutant (LALAGA, -K)) VH: EVQLQQSGPELVKPGASLKISCKASGYSFTGYNMNWVKQSHGKNLEWIGLINPSNGGSSYSQKFKGKATLTVDKSSSTAYMELLSLTSKDSAVYYCAREVRLGNALDYWGQGTSVTVSS VL: DIQMTQSPASLSVSVGETVTITCRASENIYSNLAWYQQKQGKSPQLLVYAATNLGDGAPSRFSGSGSGTQYSLKINSLQSEDFGSYYCQHFWGTPWTFGGGTKLEIKR | 0.12 | 0.104 | 3.83 | 0.00552 | – |
| G2-CH16 (antibody, human IgG1, kappa, V domains shown, chimeric: murine variable regions on human IgG1 constant region mutant (LALAGA, -K)) VH: not shown VL: DIVMTQSQKFMSTSVGDRVSVTCKASQNVGTNIAWFQQKPGQSPEALIYSASYRYSGVPDRFTGSGSGTDFTLTISNVQSEDLAEYFCQQYNTYPHTFGGGTKLEIRR | 0.32 | 0.0909 | 0.45 | 0.00476 | – |
| G2-CH2-LP1-hIgG1 (LALAGA, -K) (antibody, V domains shown) VH: QVTLKESGPGILQPSQTLSLTCSFSGFSLTISGMGVSWIRQPSGKGLEWLAHIYWDDDKRYNPSLKSRLTISKDTSSNQVFLEITSVDTADTATYYCVRAGWDFFDYWGQGTTLTVSS VL: DIVMTQSQKFMSTSVGDRVSVTCKASQNVGTNVAWYQQKPGQSPKGLIYSASYRYSGVPDRFTGSGSGTDFTLTISNVQSEDLAEYFCQQYNAYPWTFGGGTKLEIKR | – | – | – | – | 0.088 |
| G2-CH2 (antibody, human IgG1, kappa, V domains shown, chimeric: murine variable regions on human IgG1 constant region mutant (LALAGA, -K)) VH: QVTLKESGPGILQPSQTLSLTCSFSGFSLTISGMGVSWIRQPSGKGLEWLAHIYWDDDKRYNPSLKSRLTISKDTSSNQVFLEITSVDTADTATYYCVRAGWDFFDYWGQGTTLTVSS VL: DIVMTQSQKFMSTSVGDRVSVTCKASQNVGTNVAWYQQKPGQSPKGLIYSASYRYSGVPDRFTGSGSGTDFTLTISNVQSEDLAEYFCQQYNSYPWTFGGGTKLEIKR | 0.26 | 0.098 | 3.24 | 0.00627 | – |
| G2-CH3 (antibody, human IgG1, kappa, V domains shown, chimeric: murine variable regions on human IgG1 constant region mutant (LALAGA, -K)) VH: not shown VL: DIVMTQSQKFMSTSVGDRVSVTCKASQNVGTNVAWYQQKPGQSPKGLIYSASYRYSGVPDRFTGSGSGTDFTLTINNVQSEDLAEYFCQQYNSYPYTFGGGTKLEIKR | 56.5 | 0.102 | 3.55 | 0.00453 | – |
| G2-CH12 (antibody, human IgG1, kappa, V domains shown, chimeric: murine variable regions on human IgG1 constant region mutant (LALAGA, -K)) VH: QVQLQQSGAELVKPGASVKLSCKASGYTFTNYDINWVRQRPEQGLEWIGWIFPGDGSTKYNEKFKDKATLTTDTSSSTAYMQLIRLTSEDSAVYFCARILYWGQGTTLTVSS VL: DNKMTQSPSSMYASLGERVTITCKASQDINSYLSWFQQKPGKSPKTLIYRANKLVDGVPSRFSGSGSGQDYSLTISSLEYEDMGIYHCLQYDEFPYTFGGGTKLEIKR | 5.64 | 0.211 | 6.8 | 0.0106 | – |
| G2-CH1 (antibody, human IgG1, kappa, V domains shown, chimeric: murine variable regions on human IgG1 constant region mutant (LALAGA, -K)) VH: QVTLKESGPGILQPSQTLSLTCSFSGFSLSTYGIGVGWIRQPSGKGLEWLAHIWWNNNKYFNTALKSRLTISKDTSNNQVFLKIASVDTADSATYYCARMGYDIMDYWGQGTSVTVSS VL: DIVMTQSHKFMSTSVGDRVSITCKASQDVNTAVAWYQQKPGQSPKFLIYSSSYRYTGVPDRFTGSGSGTDFTFTISSVQAEDLAVYYCQQHYSTPWTFGGGTKLEIKR | 0.17 | 0.086 | 3.75 | 0.00387 | – |
| G2-CH8 (antibody, human IgG1, kappa, V domains shown, chimeric: murine variable regions on human IgG1 constant region mutant (LALAGA, -K)) VH: QVTLKESGPGILQPSQTLSLTCSFSGFSLSTYGIGVGWIRQPSGKGLEWLAHIWWNDNKYYNTALKSRLTISKDTSNNQVFLKIASVDTADTATYYCARLAYDYVDSWGQGTTLTVSS VL: DIVMTQAAFSNPVTLGTSASISCRSSKSLLHSNGITYLYWYLQKPGQSPQLLIYQMSNLVSGVPDRFSSSGSGTDFTLRISRVEAEDVGVYYCAQNLELPPTFGAGTKLELKR | 0.37 | 0.0934 | 3.05 | 0.00122 | – |
| G2-CH5 (antibody, human IgG1, kappa, V domains shown, chimeric: murine variable regions on human IgG1 constant region mutant (LALAGA, -K)) VH: EVLLQQSGPELVKPGASVKIACKASGYTLTDYNLNWVKQSHGKSLEWIGDLNPYNGGIIYNQKFKGKATLTVDKSSSTAYMELRSLTSEDIAVYYCAREGRGGAWFDSWGQGTLVTVSA VL: DIQMTQSSSSFSVSLGDRVTITCKASEDIYHRLAWYQQKPGNAPRLLISGATSLETGIPSRFSGSGSGKDYALSITSLQTEDVGTYYCQQYWSPPFTFGSGTKLEIKR | 0.12 | 0.0929 | 3.45 | 0.00394 | – |
